According to the RNAGym collection of RNA variant scans (doi:10.7554/elife.80360):

B1: HDV Ribozyme (parent)
chain: GGCCGGCAUGGUCCCAGCCUCCUCGCUGGCGCCGGCUGGGCAACAUUCCGAGGGGACCGUCCCCUCGGUAAUGGCGAAUGGGACCCA

Variants of: B1
Experiment: self-cleavage, relative activity (ratio to wild type); higher = more cleavage; co-transcriptional

In order of rising self-cleavage:
1. GGCCGGCAUGGUCCCAGACUCCUCGCUGGCGCCGGCUGGGCAACAUUCCGAGGGGACCGUCCCCUCGGUGAUGGCGAAUGGGACCCA [C18A A70G]  0
2. GGCCGGCAUGGUCCCAGACUCCUCGCUUGCGCCGGCUGGGCAACAUUCCGAGGGGACCGUCCCCUCGGUAAUGGCGAAUGGGACCCA [C18A G28U]  0
3. GGCCGGCAUGGUCCCAGACUCCUCGCUGGUGCCGGCUGGGCAACAUUCCGAGGGGACCGUCCCCUCGGUAAUGGCGAAUGGGACCCA [C18A C30U]  0
4. GGCCGGCAUGGUCCCAGACUCCUCGCUGGCGCCGGCUGGGCAACAUUCCGAGGGGACGGUCCCCUCGGUAAUGGCGAAUGGGACCCA [C18A C58G]  0
5. GGCCGGCAUGGUCCCAGACUCCUCGCUGGCGCCAGCUGGGCAACAUUCCGAGGGGACCGUCCCCUCGGUAAUGGCGAAUGGGACCCA [C18A G34A]  0.0326
6. GGCCGGCAUGGUCCCAGACUCCUCGCUGGCGCCGGCUGGGCAUCAUUCCGAGGGGACCGUCCCCUCGGUAAUGGCGAAUGGGACCCA [C18A A43U]  0.0339
7. GGCCGGCAUGGUCCCAGAUUCCUCGCUGGCGCCGGCUGGGCAACAUUCCGAGGGGACCGUCCCCUCGGUAAUGGCGAAUGGGACCCA [C18A C19U]  0.0339
8. GGCCGGCAUGGUCCCAGACUCCUCGCUGGCGCCGGCUGGGCAACAUUCCGAGGGGACCGUCCCCUCGGUAAUGGCGGAUGGGACCCA [C18A A77G]  0.0354
9. GGCCGGCAUGGUCCCAGACUCCUCGCUGGCGCCGGCUGGGCAACAUUACGAGGGGACCGUCCCCUCGGUAAUGGCGAAUGGGACCCA [C18A C48A]  0.0369
10. GGCCGGCAUGGUCCCAGACUCCUCGCUGGCGCCGGCUGGGCAACAUUCCGUGGGGACCGUCCCCUCGGUAAUGGCGAAUGGGACCCA [C18A A51U]  0.0378
11. GGCCGGCAUGGUCCCAGACUCUUCGCUGGCGCCGGCUGGGCAACAUUCCGAGGGGACCGUCCCCUCGGUAAUGGCGAAUGGGACCCA [C18A C22U]  0.0378
12. GGCCGGCAUGGUCCCAGACUCCUCGCUGGCGCCGGUUGGGCAACAUUCCGAGGGGACCGUCCCCUCGGUAAUGGCGAAUGGGACCCA [C18A C36U]  0.0386
13. GGCCGGCAUGGUCCCAGACUCCUCGCUGGCGCCGGCUGGGCAACAUUCCGAGGGGACCGUCCCCUCGGUAAUGGCGAAUGGGAGCCA [C18A C84G]  0.0437
14. GGCCGGCAUGGUCCCAGACUCCUCGCUGGCGCCGGCUGGGCACCAUUCCGAGGGGACCGUCCCCUCGGUAAUGGCGAAUGGGACCCA [C18A A43C]  0.0462
15. GGCCGGCAUGGUCCCAGACUCCUCGCUGGCGCCGGCUGGGCAACAUUCCGAGGGGACCGUCCCCUCGGUACUGGCGAAUGGGACCCA [C18A A71C]  0.0504
16. GGCCGGCAUGGUCCCAGACUCCUCGCUGGCGCCGGCUGGGCAACAUUCCGGGGGGACCGUCCCCUCGGUAAUGGCGAAUGGGACCCA [C18A A51G]  0.0554
17. GGCCGGCAUGGUCCCAGACUCCUCGCUGGCGCCGGCUGGGGAACAUUCCGAGGGGACCGUCCCCUCGGUAAUGGCGAAUGGGACCCA [C18A C41G]  0.0554
18. GGCCGGCAUGGUCCCAGACUCCUCGCUGGCGCCGGCUGGGCAACAUUCCGAGGGGCCCGUCCCCUCGGUAAUGGCGAAUGGGACCCA [C18A A56C]  0.0573
19. GGCCGGCAUGGUCCCAGACUCCUCGCUGGCGCCGGCUGGGCAACGUUCCGAGGGGACCGUCCCCUCGGUAAUGGCGAAUGGGACCCA [C18A A45G]  0.0594
20. GGCCGGCAUGGUCCCAGACUCCUCGCUGACGCCGGCUGGGCAACAUUCCGAGGGGACCGUCCCCUCGGUAAUGGCGAAUGGGACCCA [C18A G29A]  0.0604
21. GGCCGGCAUGGUCCCAGACUCCUCGCUGGCGCCGUCUGGGCAACAUUCCGAGGGGACCGUCCCCUCGGUAAUGGCGAAUGGGACCCA [C18A G35U]  0.0604
22. GGCCGGCAUGGUCCCAGACUCCUCGCUGGCGCCGGCUGGGCAACAUUCCGAGGGGACCGUCCCCUCGGUAAUGGUGAAUGGGACCCA [C18A C75U]  0.0665
23. GGCCGGCAUGGUCCCAGACUCCUCGCUGGCGCCGGCUGGGCAACAUUCCGAGGGGACCGUCCCGUCGGUAAUGGCGAAUGGGACCCA [C18A C64G]  0.0678
24. GGCCGGCAUGGUCCCAGACUCCUCGCUGGCGCCGGCUGGGCAACAUUCCGAGGGGACCGUCCACUCGGUAAUGGCGAAUGGGACCCA [C18A C63A]  0.0692
25. GGCCGGCAUGGUCCCAGACUCCUCGCUGGCGCCGGCUGGGCAACAUUCCGAGGGGACCGUCCCCUCGGUAGUGGCGAAUGGGACCCA [C18A A71G]  0.0739
26. GGCCGGCAUGGUCCCAGACUCCUCGCUGGCGCCGGCUGAGCAACAUUCCGAGGGGACCGUCCCCUCGGUAAUGGCGAAUGGGACCCA [C18A G39A]  0.0739
27. GGCCGGCAUGGUCCCAGACUCCUCGCUGGCGCCGGCUGGGCAACAUUCCGAGGGGACCGUCCCCUUGGUAAUGGCGAAUGGGACCCA [C18A C66U]  0.0779
28. GGCCGGCAUGGUCCCAGACUCGUCGCUGGCGCCGGCUGGGCAACAUUCCGAGGGGACCGUCCCCUCGGUAAUGGCGAAUGGGACCCA [C18A C22G]  0.0811
29. GGCCGGCAUGGUCCCAGACUCCUCGCUGGCGCCGGCUGGGCAACAUUCCGAGGGGACCGUCCCCUCGGUAAUGGCGAAUGGGACCCG [C18A A87G]  0.0811
30. GGCCGGCAUGGUCCCAGACUCCUCGCUGGCGCCGGCUGGGCAACAUUCCGAGGGGACCGUCCCCUCGGUAAUGGCGAAUGGGCCCCA [C18A A83C]  0.0831
31. GGCCGGCAUGGUCCCAGACUCCUCGCUGGCACCGGCUGGGCAACAUUCCGAGGGGACCGUCCCCUCGGUAAUGGCGAAUGGGACCCA [C18A G31A]  0.0898
32. GGCCGGCAUGGUCCCAGACUCCUCGCUGGCGCCGGCUGGGCAACAUUCCGAGGGGACCGUCCCCUCGGUAAUGGCGACUGGGACCCA [C18A A78C]  0.0978
33. GGCCGGCAUGGUCCCAGACUCCUGGCUGGCGCCGGCUGGGCAACAUUCCGAGGGGACCGUCCCCUCGGUAAUGGCGAAUGGGACCCA [C18A C24G]  0.107
34. GGCCGGCAUGGUCCCAUCCUCCUCGCUGGCGCCGGCUGGGCAACAUUCCGAGGGGACCGUCCCCUCGGUAAAGGCGAAUGGGACCCA [G17U U72A]  0.119
35. GGCCGGCAUGGUCCCAGACUCCUCGCUGGCGCAGGCUGGGCAACAUUCCGAGGGGACCGUCCCCUCGGUAAUGGCGAAUGGGACCCA [C18A C33A]  0.121
36. GGCCGGCAUGGUCCCAGACUCCUCGCUGGCGCCGGCUGGGAAACAUUCCGAGGGGACCGUCCCCUCGGUAAUGGCGAAUGGGACCCA [C18A C41A]  0.125
37. GGCCGGCAUGGUCCCAGACUCCUCGCUGGCGCCGGCUGGGCAACAUUCCGAGGGGACCGUCCCCUCGGUCAUGGCGAAUGGGACCCA [C18A A70C]  0.128
38. GGCCGGCAUGGUCCCAGACUCCUCGCUAGCGCCGGCUGGGCAACAUUCCGAGGGGACCGUCCCCUCGGUAAUGGCGAAUGGGACCCA [C18A G28A]  0.128
39. GGCCGGCAUGGUCCCAGACUGCUCGCUGGCGCCGGCUGGGCAACAUUCCGAGGGGACCGUCCCCUCGGUAAUGGCGAAUGGGACCCA [C18A C21G]  0.131
40. GGCCGGCAUGGUCCCAGACUCCUCGCUGGCGCCGGCUGGGCAACAUUCCGAGGGGACCGUCCCCUCGGUAAUGGCGAGUGGGACCCA [C18A A78G]  0.131
41. GGCCGGCAUGGUCCCAGACUCCUCGCUGGCGCCGGCUGGGCAACAUUCUGAGGGGACCGUCCCCUCGGUAAUGGCGAAUGGGACCCA [C18A C49U]  0.133
42. GGCCGGCAUGGUCCCAGACUCCUCGCUGGCGCCGGCUGGGCAACAUUCCGAGGGGACCGUCCCCUCGGUAAUGGCGAAUGGGACCCC [C18A A87C]  0.134
43. GGCCGGCAUGGUCCCAGACUCCUCGCUGGCGCCGGCUGGGCAACAUUCCGAGGGGACCGUCGCCUCGGUAAUGGCGAAUGGGACCCA [C18A C62G]  0.135
44. GGCCGGCAUGGUCCCAGACUCCUCGCUGGCGCCCGCUGGGCAACAUUCCGAGGGGACCGUCCCCUCGGUAAUGGCGAAUGGGACCCA [C18A G34C]  0.136
45. GGCCGGCAUGGUCCCAGACUCCUCGCUGGCUCCGGCUGGGCAACAUUCCGAGGGGACCGUCCCCUCGGUAAUGGCGAAUGGGACCCA [C18A G31U]  0.141
46. GGCCGGCAUGGUCCCAGACUCCUCGCUGGCGCCGGCUGGGCAACAUUCCGAGGGGACCGUCCUCUCGGUAAUGGCGAAUGGGACCCA [C18A C63U]  0.145
47. GGCCGGCAUGGUCCCAGACUCCUCGCUGGCGCCGGCUGGGCAACAUUCCGAGGGGACCGUCCCCUCGGUAAUGGCGAAUGGGACCCA [C18A]  0.145
48. GGCCGGCAUGGUCCCAGACUCCUCGCUGGCGCCGCCUGGGCAACAUUCCGAGGGGACCGUCCCCUCGGUAAUGGCGAAUGGGACCCA [C18A G35C]  0.147
49. GGCCGGCAUGGUCCCAGACUCCUCGCUGGCGCCGGCUGGGCAACAUUCCGAGGGGACCGUCCCCUCGGUAAUGGCGAAUGGGAACCA [C18A C84A]  0.151
50. GGCCGGCAUGGUCCCAGACUCCUCGCUGGCGCCGGCUGGGCAAAAUUCCGAGGGGACCGUCCCCUCGGUAAUGGCGAAUGGGACCCA [C18A C44A]  0.17
51. GGCCGGCAUGGUCCCAGACUCCUCGCUGGCGCCGGCUGGGCAACUUUCCGAGGGGACCGUCCCCUCGGUAAUGGCGAAUGGGACCCA [C18A A45U]  0.172
52. GGCCGGCAUGGUCCCAGACUCCUCGCUGGCGCCGGCUGGGCAACAUUCCGAGGGGACCGUCCCCUCGGUAAUGGCGAAUGGGACCGA [C18A C86G]  0.185
53. GGCCGGCAUGGUCCCAGACUCCUCGCUGGCGCCGGCUGGGCAGCAUUCCGAGGGGACCGUCCCCUCGGUAAUGGCGAAUGGGACCCA [C18A A43G]  0.192
54. GGCCGGCAUGGUCCCAGACUCCUCGCUGGCGCCGGCUGGGCAAGAUUCCGAGGGGACCGUCCCCUCGGUAAUGGCGAAUGGGACCCA [C18A C44G]  0.193
55. GGCCGGCAUGGUCCCAGACUCCUCGCUGGCGCCGGCUGGGCAACAUUCCGAGGGGACUGUCCCCUCGGUAAUGGCGAAUGGGACCCA [C18A C58U]  0.196
56. GGCCGGCAUGGUCCCAGACUCCUCGCUGGCGCCGGCUGGGCAACAUUCCGAGGGGAGCGUCCCCUCGGUAAUGGCGAAUGGGACCCA [C18A C57G]  0.208
57. GGCCGGCAUGGUCCCAGACUCCUCGCUGGCGCCGGCUGGGCAACAUUCCGAGGGGACCGUCCCCUAGGUAAUGGCGAAUGGGACCCA [C18A C66A]  0.208
58. GGCCGGCAUGGUCCCAGACUCCUCGCUGGCGCCGGCUGGGCAACAUUCCGAGGGGAACGUCCCCUCGGUAAUGGCGAAUGGGACCCA [C18A C57A]  0.219
59. GGCCGGCAUGGUCCCAGACUCCUCGCUGGCGCCGGCUGGGCAAUAUUCCGAGGGGACCGUCCCCUCGGUAAUGGCGAAUGGGACCCA [C18A C44U]  0.219
60. GGCCGGCAUGGUCCCAGACUCCUCGCUGGCGCCGGCUGGGCAACAUUCCGAGGGGUCCGUCCCCUCGGUAAUGGCGAAUGGGACCCA [C18A A56U]  0.222
61. GGCCGGCAUGGUCCCAGACUCCUCGCUGGCGCCGGCUGGGCAACAUUCCGAGGGGACCGUCCCCUCGGUAAUGGCGAAUGGGUCCCA [C18A A83U]  0.237
62. GGCCGGCAUGGUCCCAGACUCCUCGCUGGCGCCGGCUGGGCAACAUUCCGAGGGGACCGUCCCUUCGGUAAUGGCGAAUGGGACCCA [C18A C64U]  0.256
63. GGCCGGCAUGGUCCCAUCCUCCUCGCUGGCGCCGGCUGGGCAACAUUCCGAGGGGACCGUCCCCUCGGAAAUGGCGAAUGGGACCCA [G17U U69A]  0.306
64. GGCCGGCAUGGUCCCAUCCUCCUCGCUGGCGCCGGCUGGGCAACAUUCCGAGGGGACCGUCCCCUCGGGAAUGGCGAAUGGGACCCA [G17U U69G]  0.534
